Results from publication PMC3515540, “Identification of Regions Involved in Substrate Binding and Dimer Stabilization within the Central Domains of Yeast Hsp40 Sis1” (PLoS ONE, 2012).

T1: full-length Ydj1 (yeast, UniProt P25491 1-409)
T1 construct: Ydj1, yeast cytosolic Type I DnaJ/Hsp40, full length; also called wild-type Ydj1; source: E. coli BL21(DE3), purified by two chromatography steps
T1 sequence (looked up): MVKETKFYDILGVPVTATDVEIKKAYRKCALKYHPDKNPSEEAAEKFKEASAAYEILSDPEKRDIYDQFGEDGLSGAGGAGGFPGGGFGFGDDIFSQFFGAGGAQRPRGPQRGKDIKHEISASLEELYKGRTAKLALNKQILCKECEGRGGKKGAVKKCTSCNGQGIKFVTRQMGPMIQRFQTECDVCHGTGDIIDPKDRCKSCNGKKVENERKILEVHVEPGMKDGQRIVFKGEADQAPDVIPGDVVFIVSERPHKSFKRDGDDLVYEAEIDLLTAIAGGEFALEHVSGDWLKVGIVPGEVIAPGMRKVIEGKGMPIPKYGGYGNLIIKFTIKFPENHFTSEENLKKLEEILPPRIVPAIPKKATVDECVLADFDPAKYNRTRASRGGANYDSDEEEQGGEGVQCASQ

B1: Sis1_Δ_(121–257) (natural protein, yeast, UniProt P25294 1-352, looked up)
chain: MVKETKLYDLLGVSPSANEQELKKGYRKAALKYHPDKPTGDTEKFKEISEAFEILNDPQKREIYDQYGLEAARSGGPSFGPGGPGGAGGAGGFPGGAGGFSGGHAFSNEDAFNIFSQFFGHPNFKRDGDDLIYTLPLSFKESLLGFSKTIQTIDGRTLPLSRVQPVQPSQTSTYPGQGMPTPKNPSQRGNLIVKYKVDYPISLNDAQKRAIDENF
notes: source: E. coli BL21(DE3), purified by two chromatography steps
B2: Hsp70 Ssa1 (natural protein)
chain: not shown
notes: Ssa1, yeast cytosolic Hsp70; also called yeast Hsp70; source: E. coli BL21(DE3), purified by two chromatography steps (said of all recombinant proteins, 'unless otherwise noted')
B3: SYS (Sis1_(1–121)-Ydj1_(101–255)-Sis1_(258–352)) (other, yeast, UniProt P25294 1-121, looked up)
chain: MVKETKLYDLLGVSPSANEQELKKGYRKAALKYHPDKPTGDTEKFKEISEAFEILNDPQKREIYDQYGLEAARSGGPSFGPGGPGGAGGAGGFPGGAGGFSGGHAFSNEDAFNIFSQFFGGAGGAQRPRGPQRGKDIKHEISASLEELYKGRTAKLALNKQILCKECEGRGGKKGAVKKCTSCNGQGIKFVTRQMGPMIQRFQTECDVCHGTGDIIDPKDRCKSCNGKKVENERKILEVHVEPGMKDGQRIVFKGEADQAPDVIPGDVVFIVSERPHPNFKRDGDDLIYTLPLSFKESLLGFSKTIQTIDGRTLPLSRVQPVQPSQTSTYPGQGMPTPKNPSQRGNLIVKYKVDYPISLNDAQKRAIDENF
notes: Ydj1, yeast, residues 101–255 (central region); Sis1, yeast, residues 258–352 (CTDII and dimerization region); also called chimera SYS; SYS chimera; source: E. coli BL21(DE3), purified by two chromatography steps

Legend:
[1] = target: the molecule itself; experiment: SEC-MALLS; Superdex 200 10/300 GL, buffer A (25 mM Tris-HCl pH 7.5, 500 mM NaCl); 25 µM protein without urea, 50–75 µM with urea up to 1 M
Hsp70 Ssa1 = target: B2; experiment: ELISA; Sis1, variants or Ydj1 (100 µL at 200 nM) coated on the microplate; Ssa1 (100 nM) in 50 mM phosphate pH 7.4, 150 mM NaCl, 5 mM Mg-ATP, 1 h, 25°C; bound Ssa1 detected with α-Ssa1; Sis1 set as 100%; conditions: both partners purified
full-length Ydj1 = target: T1, full-length Ydj1; experiment: as above; conditions: both partners purified
Sis1_Δ_(121–257) = target: B1; experiment: as above; conditions: both partners purified
[2] = target: B3; experiment: as above; conditions: both partners purified

Hsp70 Ssa1, sequence (P10591 whole entry): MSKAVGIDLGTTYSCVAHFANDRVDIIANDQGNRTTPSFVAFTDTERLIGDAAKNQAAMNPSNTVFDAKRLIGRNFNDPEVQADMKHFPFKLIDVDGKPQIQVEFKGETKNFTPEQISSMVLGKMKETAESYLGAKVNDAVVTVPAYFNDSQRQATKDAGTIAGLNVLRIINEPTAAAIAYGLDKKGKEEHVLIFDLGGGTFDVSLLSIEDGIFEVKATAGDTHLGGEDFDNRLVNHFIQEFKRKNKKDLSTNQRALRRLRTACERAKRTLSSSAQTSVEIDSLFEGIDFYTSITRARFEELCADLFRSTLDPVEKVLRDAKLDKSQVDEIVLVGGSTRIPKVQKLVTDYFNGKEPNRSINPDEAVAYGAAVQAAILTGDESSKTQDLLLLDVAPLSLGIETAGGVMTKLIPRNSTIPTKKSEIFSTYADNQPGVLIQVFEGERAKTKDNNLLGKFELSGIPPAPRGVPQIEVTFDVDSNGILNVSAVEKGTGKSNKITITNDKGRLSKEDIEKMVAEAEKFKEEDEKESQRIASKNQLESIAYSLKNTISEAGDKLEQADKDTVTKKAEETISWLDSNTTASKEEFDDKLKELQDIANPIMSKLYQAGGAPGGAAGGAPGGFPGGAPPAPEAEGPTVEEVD

Row | binding result (Hsp70 Ssa1) | percent of the binding ability of Sis1 (full-length Ydj1) | percent of the binding ability of Sis1 (Sis1_Δ_(121–257)) | percent of the binding ability of Sis1 [2] | Binder | stoichiometry N [1]
1 | binds | – | – | – | wild-type Sis1 (natural protein, yeast, UniProt P25294 1-352, looked up, Sis1, yeast cytosolic Type II DnaJ/Hsp40, full length wild type (residues to 352 by the SYS formula); no tag is stated; also called native Sis1; full length wild-type Sis1; source: E. coli BL21(DE3), purified by two chromatography steps) MVKETKLYDLLGVSPSANEQELKKGYRKAALKYHPDKPTGDTEKFKEISEAFEILNDPQKREIYDQYGLEAARSGGPSFGPGGPGGAGGAGGFPGGAGGFSGGHAFSNEDAFNIFSQFFGGSSPFGGADDSGFSFSSYPSGGGAGMGGMPGGMGGMHGGMGGMPGGFRSASSSPTYPEEETVQVNLPVSLEDLFVGKKKSFKIGRKGPHGASEKTQIDIQLKPGWKAGTKITYKNQGDYNPQTGRRKTLQFVIQEKSHPNFKRDGDDLIYTLPLSFKESLLGFSKTIQTIDGRTLPLSRVQPVQPSQTSTYPGQGMPTPKNPSQRGNLIVKYKVDYPISLNDAQKRAIDENF | 2
2 | binds | – | – | – | Sis1_Δ_(124–174) (natural protein, yeast, UniProt P25294 1-352, looked up, source: E. coli BL21(DE3), purified by two chromatography steps) MVKETKLYDLLGVSPSANEQELKKGYRKAALKYHPDKPTGDTEKFKEISEAFEILNDPQKREIYDQYGLEAARSGGPSFGPGGPGGAGGAGGFPGGAGGFSGGHAFSNEDAFNIFSQFFGGSSTYPEEETVQVNLPVSLEDLFVGKKKSFKIGRKGPHGASEKTQIDIQLKPGWKAGTKITYKNQGDYNPQTGRRKTLQFVIQEKSHPNFKRDGDDLIYTLPLSFKESLLGFSKTIQTIDGRTLPLSRVQPVQPSQTSTYPGQGMPTPKNPSQRGNLIVKYKVDYPISLNDAQKRAIDENF | 2
3 | – | – | – | – | B1 | 2
4 | – | ~30% | ~50% | ~50% | B2 | –
5 | – | – | – | – | B3 | 2
